# Assay results reported in the nanobody polyreactivity screen of Harvey et al. (2022).
# Test: yeast display, Sf9 membrane polyspecificity reagent, FACS + sequencing; frameworks hold sequencing errors
# Summary of the method: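 Nanobodies from a synthetic yeast display library (Saccharomyces cerevisiae BJ5465), induced 36–48 hours with galactose, were stained 1 hour at 4 °C with 10% biotinylated, detergent-solubilized Sf9 membrane reagent, enriched on streptavidin microbeads, then FACS-sorted. Anti-HA (expression) and streptavidin (reagent binding) fluorescence set low and high (top ~1%) gates. Polyreactivity labels come from the gate of origin. Genes were colony-PCR amplified, MiSeq 2 × 250 sequenced and filtered by CDR length.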
row,Sequence,polyreactivity (PSR sort gate)
1,QVQLGESRGGIVQAGGSLRLSCAASGSTFSYYAMGWYRQAPGKARELVAAISNRGGSTYYADSVKGRFTISRDNAKNTVYLQMNSLKPEDTAVYYCAAYYVFGYSTSGDYWGQGTQVTVSS,high polyreactivity
2,QVQLGESRGGLVQAGGSLRLSCAASGRTFTGYAMGWYRQAPGKERELVAAITVSSGRTYYADSVKGRFTISRDNAKNTVYLQMNSLKPEDTAVYYCAKRFRSTHLWKFGGYDYWGQGTQVTVSS,high polyreactivity
3,QVQLGESVGGLVQAGGSLRLSCAASGRIFEPYAMGWYRQAPGKESELVAAINSGGSTNYADSVKGRFTISRDNAKNTVYLQMNSLKPEDTAVYYCNKGQNIRQSPGDYWGLGTQVTVSS,low polyreactivity
4,QVQLHESAGGLEQAGGCLSCTASGTIFGQGDMCWYLQAPGKEPELVGTINDGASTYYADSVKGRFTISRDKAKNTVYLQKNSLKPADTAVYYCSVFTDITTYFGYWGQGTQVTVSS,low polyreactivity
5,QVQLHESGGGLVQAGGGLRLSCAASGSISSTGFMGWYRQAPGKEREPVAAIAPGTTTYYADSVKGRFTISRDNAINTVYLQMNSLRPEDTAVYYCAVFTDNRVAFLYWGQGTQVTVSS,low polyreactivity
6,QVQLHESGGGLVQAGGGLRLSSAASGSISSTGFMGWYRQAPGKEREPVAAIAPGTTTYYADSVKGRFTISRDNAKNTVYLQMNSLRPEDTAVYYCAVFTDNRVAFLYWGQGTQVTVSS,low polyreactivity
7,QVQLHESGGGLVQAGGSLRLSCAASGTISYAGPMGWYRQAPGKEREFVAGIGVGSNTNYADSVKGRYTIIRDNAKNTVYLQMNSLNPEDTAVYYCAVGGYDPLGRPYWGQGTQVTVSS,low polyreactivity
8,QVQLIESGGGLVQAGGSLRLSCAASGSSLYYYALGWYRQAPGKEREWVAAISSSDGRTYYADSVKGRFTISRDNAKNTVYVQMNSLKPEDTAVYYCNAAVYAHRYIYGFDYWGQGTQVTVSS,high polyreactivity
9,QVQLKESVGGLVQAGGILRLSCAASGNIFPTDRMAWYRQAPGTELEFVATISHGGSTNYADSVKGRFTISRDNSKNTLYLQMNSLKPEDTAVYYWWGWSLGRWRHYYWGQGTQVTVSS,low polyreactivity
10,QVQLLESGDGLVQAVGSLRLSCAASGYISGYYYMGWYRQAPGKERELVAGIDAFGSSTNYADCVKGRFTISRDNAINSVYLQMNSLKPEDTAVYYCAARPDGDRLFSYWGQGTQVTVSS,low polyreactivity
11,QVQLLESGGALVQAAGSLRLSCAASGYTIGRYAIGWYRHAPGKDRELVAAITWSGGSTYYADSVKGRFTISRDNAKNTVYLQMNSLKPEDTAVYYCAKRYRYYSYGPYGMYYWGQGTQVSVSS,high polyreactivity
12,QVQLLESGGGIVQAGGSLRLSCAASGRINAMGWYRQAPGKERELVAVITLRGGSTYYADSVKGRFTISRDNAKNTVYLQMNSLKPEYTAVYYCAAVYRWPDAKYDYWGQGTQVSVSS,low polyreactivity
13,QVQLLESGGGIVQAGGSLRLSCGASGSTFTLNAMGWYRQAPGTEREFVADISWSSGRTYYADSVKGRFTISRDNAKNTVYVQMNSLKQEDTAVYYCATDDFWNVKFYAYYPEFDYWGQGTQVNVSS,low polyreactivity
14,QVQLLESGGGLDKAGVRIRLSCASSGIIFAWYAMVWYRQAHRKEMELVAAISWSCGSTYYAYSVKLRFTISRDNAKNTVDLQMNSLTPEDTAVYYCATYPRRQGKYAYWGQGTQVTVSS,high polyreactivity
15,QVQLLESGGGLFQAGGSLRLSCAASGRIFDPYAMGWYRKAPWKETELVAAISWRGGSTNYADSVKGRFTISRDNAKNTVYLQMNSLKPEDTAVYYCAAVPVRYRYSYGYYYWGQGTQVTVSS,high polyreactivity
16,QVQLLESGGGLFQPGGSLRLSCAASGRTFDGNVMGWYRQAPGKETELVAAITASGGRTYYADSVKGRFTISSDNAKNTVYLQMNSLKAEDTAVYYCNAGIRRSRGTMDYWGQGTQVTVSS,high polyreactivity
17,QVQLLESGGGLLQAGGSLRLSCAASGLTFGKYAMGWYRQAPGKERELVAAINSSGGSTYYADSVKGRFTISRDNAKNTVYLQMNSLKPEDSAVYYRAVAVYRLIYFVYNYWGQGTQVTVSS,low polyreactivity
18,QVQLLESGGGLVHSGGSLRLSCASSGRIFPSNTMGSYRPAPGKERELVADISFGGGSTSYADSVKGRFTISRDNAKNTVYLQMNRLKPEDTAVYYCNADRDDDYDYWGQGTQVTLSS,low polyreactivity
19,QVQLLESGGGLVQAGASLRLSCAASGSIFLPNAMGWSRQAPGKERELVAAISWSGGSTYADSVKGRITISRDNAKNTVYLQMNILKPEDTAFYFCAADDGFTPRDLYVCYDYWGQGTQVTVSS,low polyreactivity
20,QVQLLESGGGLVQAGCSLRLSCAASGFTFKSNAMGWYRQAPGKESELVARINRSGGSTYYADSVKGRFTISRYNAKNTVYLQMNSLKPEDTAVYYCARGRYTLYESKYDYWGQGTQVTVSS,high polyreactivity
21,QVQLLESGGGLVQAGGCLRLSCAASGFTFYGYARGWYRQAPGIERELVAGIAKCGTRTYYADSLKGRFTISRDNAENTVFFQMNSLKPEDTAVYYCAARLRRGLTATWYYYWGQGSQVTVSS,high polyreactivity
22,QVQLLESGGGLVQAGGSLGCAASGNISTRSEMGWYRQAPGKEREFVATINSGGITNYADSVKGRFTISRDNENNTVYLGMNSLKPEDTAVYYRAVYVYFSDPYDYWGQGTQVTVSS,low polyreactivity

row,Sequence,polyreactivity (PSR sort gate)
1,QVQLLESGGGLVQAGGSLRLSCAASGFIICYNGMGWYRQAPGKERELVAGITYSDGSTYYADSVKGRFTISRDNAKITVYLQMNSLKPEDTAVYYCAVDVFYYWAEDYDYWGQGTQVTVSS,low polyreactivity
2,QVQLLESGGGLVQAGGSLRLSCAASGFNFGVYAMGWYRQAPGKERELVAAITRSGGSTYYADSVKGRYTISRDNAKNSVYLQMNSLNPEDTAVYYCAARARDHYGYWGQGTQVSVSS,high polyreactivity
3,QVQLLESGGGLVQAGGSLRLSCAASGFTFNPYAMGWYRQAPGKERELVARISRGTSTNYADSVKGRFTISRDNAKNTVYLQMNSLKPEDTAVYYCAASYGSFHTYLDYNYWGQGTQVTVSS,low polyreactivity
4,QVQLLESGGGLVQAGGSLRLSCAASGFTFYRYAMGWYRQAPGKERELVAVISGSGTSTYYADSVKGRFTISRDIAKNTVYLQMNSLKQEDTAVYYCAASQSIFSGHVRYRVDYDSWGQGTQVSVSS,high polyreactivity
5,QVQLLESGGGLVQAGGSLRLSCAASGFTLAFNAMGWYRQAPGKERELVASITSSSGSTYYADSVKGRFTISRDNAKNTVYLQLNSLKPEDTAVYYCARDLAIPQVLSQPIFGYWGQGTQVTVSS,low polyreactivity
6,QVQLLESGGGLVQAGGSLRLSCAASGGIFPAYAMGWYRQAPGKERELFADITNGGSTYYADSVKGRFTISRDNAKNTVYLQMNSLKPEDTAVYYCNAREFWRTRFGCGYPYRRNMDYWGQGTQVTVSS,low polyreactivity
7,QVQLLESGGGLVQAGGSLRLSCAASGIIFSSNAMGWYRKAPGKERELVAAITRRGGSTRYADSVKGRFTISRDNAKNTVYLQMNSLKPEDTAVYYCNALSGYPYRWGISYPMDYWGQGTQVTVSS,high polyreactivity
8,QVQLLESGGGLVQAGGSLRLSCAASGIIFVRYVMGWYRQAPVKERELVAAINWSGGSTYYADSVKGRFTISRDNAKNTVYLQMNSLKPEDTAVYYCAAGSARDDDYWGQGTQVTVSS,high polyreactivity
9,QVQLLESGGGLVQAGGSLRLSCAASGNTFYPNAMGWYRPAPGKETELVAAISSSGGSTYYADSVKGRFTISRDNAKNTVYLQMKSLNPEDTAVYYCASEFDYPLSGEYYYWGKGTQVTVSS,high polyreactivity
10,QVQLLESGGGLVQAGGSLRLSCAASGRILTGYAMGWYRQAPGKERELFSSINWRGGSTYYADSVKGRFTISRDNAKNTVYLQMISLIPEDTAVYYCAARVLVTGTYYTIYDYWGQCTQVTVSS,high polyreactivity
11,QVQLLESGGGLVQAGGSLRLSCAASGSISVAYAMGWYRQAPGKERELVATIRSGDSTYYADSVKGRFTISRDNAKNTVYLQMNSLKPEDTAVYYCNADATDSYPEKDEHDSWGQGTQVTVSS,low polyreactivity
12,QVQLLESGGGLVQAGGSLRLSCAASGSTFASYAMGWYRQAPGKETELVAAITRTGSTYYADSVKGRFTISRDNAKNTVYLQMNSLKPEDTAVYYCAKLWIGGYKYYYWGQGTQVTVSS,high polyreactivity
13,QVQLLESGGGLVQAGGSLRLSCAASGSTFRYYAMGWYRQAPGKERELVAAISKSGGRTYYADSVKGRFTISRDNAKHTVYLQMNSLKPEDTAVYYCAADSKEVRYDYWGQGTQVTVSS,high polyreactivity
14,QVQLLESGGGLVQAGGSLRLSCAASGSTFYCYTMGWYRQAPGKERELVARISSSGSTNYADSVKGRFTISRDNAKNTVYLQMNSLKPEDTAVYYCNKDWIYRGYDYWGQGTQVTVSS,high polyreactivity
15,QVQLLESGGGLVQAGGSLRLSCAASGYTFASYAMGWYRQAPGKERELVASISNGGGTNYADSVKGLFRISRDNAKNTVYLQMNSLKPEDTAVYYCAKRYRYYSHSYYYWGQCTQVTVSS,high polyreactivity
16,QVQLLESGGGLVQAGGSLRLSCAASGYTFTWYAMGWYRQAPGTEREFVAAISIGGDSTYYADSVKGRFTNSRDNAKNTVYLLMNSLIPEDTAVYYCAADTYPRWILLIGELQVETSYDYWGQGTQVTVSS,low polyreactivity
17,QVQLLESGGGLVQAGGSLRLSCAASRTISYAGTRLWYRQAPGKEREFVAGIGVGSNTNYADSVKGRYTIIRDNAINTVYLQMTSLKPEDTAVYYCAVGGYAPLGRPFWGQGTQVSVSS,low polyreactivity
18,QVQLLESGGGLVQAGGSLRLSCAASVSIFPKNTMGWYIQAPGKERELVAAISKSGGSTYYADSVKGRFTISRDNAKNTVYLQMNSLKPEDTAVYYCAAALGLRSTSWGRRGGGGDYWGQGTQVTGSS,high polyreactivity
19,QVQLLESGGGLVQAGGSLRLSCAPSGSTIAWYAMGWYIHAPGKERELVAAITQSGGSTYYADSVKGRFTISRDNEKNTVYLLMIRLKPEDTAVYYCAAYPGYAKYRYDFWGPGTQVTVSS,high polyreactivity
20,QVQLLESGGGLVQAGGSLRLSCASSGFIFAIYAMGWYRQAPGKERELVAAITSSSSTYADSVKGRFTISRDNAKNTVYLQMNSLKPEDTAVYYCAADTYSYRYSNDYWGQGTQVTVSS,low polyreactivity
21,QVQLLESGGGLVQAGGSLRLSCASSGRTFRSYGMGWYRQAPGKERELVAVISWRDGSTFYADSVKGRFTISRDNAKNTVYLQMNSLKPEDTAVYYCNARGDVIVTPPKFSFKYEYWGQGTQVTVSS,low polyreactivity
